The target in the assay is recombinant human BMP6 (human) (UniProt P22004). Nature of the assay: cell-based or functional assay.
Chain of UniProt P22004 (P22004 382-513 limits assumed): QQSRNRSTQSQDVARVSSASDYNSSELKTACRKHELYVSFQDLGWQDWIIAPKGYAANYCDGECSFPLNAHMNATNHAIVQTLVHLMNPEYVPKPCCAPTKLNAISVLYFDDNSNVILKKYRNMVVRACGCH

As to “recombinant human Sclerostin (from UniProt Q9BQB4 24-213)”, the BMP6-induced melanin content in human epidermal melanocytes (72 h) is 15%.
